Reference: patent publication US9200265B2, “Anti-cocaine compositions and treatment” (priority 2006, dated 2015)
Like-named read-outs stand apart in the source and are kept apart here.

Legend:
[1] = Thermal stability: preincubation at 37° C., activity measured at RT (25° C.); type: physicochemical; details: wild type
Method: Thermally stable mutant CocE polypeptides were identified by determining 1/2 of the mutant CocE polypeptides. Briefly, enzymes were preincubated at 37° C. for varying times. Activity measurements were determined at RT (25° C.). Mutant enzymes with 1/2 of greater than 12 minutes (the 1/2 of wild type CocE) were considered thermally stable (See, e.g., FIG. 27 and Table 7).

[2] = tested on: cocaine-induced lethality; assay: Rodent model of acute cocaine toxicity (convulsions and lethality) in rats; details: for protection against cocaine-induced lethality: one minute before 180 mg/kg cocaine
[3] = cocaethylene; cited from earlier work
[4] = cited from earlier work
[5] = Time-dependent inactivation of CocE in vitro (incubation at temperature, then activity)
Method: For time-dependent inactivation of CocE in vitro, purified CocE enzyme (at 250 ng/ml) was incubated in assay buffer in the absence of cocaine at 37° C. for various times. Following incubation at 37° C. the samples were placed on ice. To assess the effect of temperature on CocE activity, samples were incubated with (−) cocaine at various concentrations as indicated at a final enzyme concentration of 125 ng/ml. The rate of decay of (−)-cocaine at A240 was measured on a multiplate reader.

[6] = tested on: CocE antibodies; assay: Direct ELISA specific for CocE antibodies in serum of mice; type: in vivo, mouse
Method: CocE can be used in incomplete Freund's adjuvant (IFA) to immunize mice (see Table 4). A direct ELISA specific for CocE antibodies was set up by a standard protocol. CocE was used (1 ug/ml) to coat a 96-well micro-titer plate using a borate buffered saline (1.5 M NaCl, 0.5 M H3BO3, 1.0 M NaOH) to resuspend the cocaine esterase (50 uL/well). The coating plates was left overnight at 4 C. The coating buffer was removed the following morning and the plates blocked with 2% normal goat serum in PBS for 1 hr at 37 C and washed 3 times. Serum from the various groups of mice was serially diluted in 50 μL of PBS in the wells in a range of 10^2 to […] and run in duplicate. The plates were covered and incubated for 30 minutes at 37 C. Subsequently, the plates were washed 3 times and 50 μL/well of Goat anti-mouse IgG peroxidase labeled antibody diluted 1:400. The plates were then washed 3 times and 100 μL peroxidase substrate solution (OPD dissolved in citratelphosphate buffer) was added to each well. After a 5-10 minute incubation (based upon color development in the positive controls) the reaction was stopped using 3M H2SO4 (50 μL/well). […] Positive controls were derived by immunizing Balb/c mice with 100 μg in 100 μL of Cocaine esterase emulsified in incomplete Freund's adjuvant […] by intraperitoneal (IP) injection. In Positive 1 group the serum was isolated from 2 week immunized mice. In Positive 2 group immunized mice were boosted using 100 μg in 100 μL by IP injection at 2 weeks post-primary immunization and the serum collected after an additional week (3 week post-primary).

[7] = Half-life of CocE in rat plasma; type: in vitro ADME
Method: CocE's protective effects were eliminated when rats were treated 100 min prior to cocaine. This time-dependent effect is most likely due to the thermal deactivation of the enzyme in vivo.

[8] = tested on: cocaine-induced lethality; assay: Cocaine toxicity in mice, incl. repeated CocE doses; type: in vivo, mouse
Description: The animal toxicity model was similar to that described previously, except as described. Male NIH Swiss mice were used. For tail intravenous injection, mice are placed in a small restraint chamber that exposes their tail. A heat lamp with an infrared, 250 w bulb is placed about 4 inches from the tail, and left for a couple of minutes. The tail is then cleansed with an alcohol wipe and a 30 G ½ precision glide needle (Fisher Scientific), is inserted into one of the side veins for infusion. To verify whether the needle is in the vein a small amount of drug is infused, if in the correct location the solution should infuse easily without any indication of an incorrect subcutaneous location, which appears white at the site of injection. For intravenous catheterization, Male NIH Swiss mice are anesthetized with ketamine 100 mg/kg and xylazine 10 mg/kg co-administered i.p. When mice are no longer responsive to paw pressure, the neck is shaved and prepped by alternating Betadine and alcohol wipes. Under clean conditions, a right transverse neck incision is made and the external jugular vein is isolated. A catheter is inserted into the vein with the aid of a dissecting microscope to the level of the right atrium, and is secured in the vein with nylon, 4-0 sutures and tissue adhesive, 3M Vetbond (3M Animal Care Products, St. Paul, Minn.). The catheters are a short length of Tygon tubing with an inner diameter of 0.010 in. and an outer diameter of 0.030 in. (Small Parts, Inc., Miami Lakes, Fla.). A small incision is made in the middle of the animal's back, and a trocar inserted subcutaneously to exit at the ventral incision site. The catheter is then pulled through the trocar and brought out the animal's back where it is held in place with nylon suture material and the tissue adhesive. A short piece of steel wire with a diameter of 0.011 in. (Small Parts, Inc., Miami Lakes, Fla.) is inserted into the end of the catheter. The ventral incision is closed with 4-0 Vicryl suture material and the mouse placed under a heat lamp for recovery. Approximately an hour later, the mouse is returned to its home cage.
Mice that survived a first administration of the combination of 0.32 mg CocE and 320 mg/kg cocaine were given this combination again, 14 days following the initial administration.

[9] = tested on: WIN 35065-2 induced toxicity; assay: WIN 35065-2 induced lethality in rats; details: 1.0 mg CocE i.v. one minute after 560 mg/kg WIN-35065-2 i.p.
[10] = Ex vivo cocaine degradation by CocE in human plasma (HPLC tandem MS)
[11] = 1.0 mg i.v. one minute after cocaine i.p., rats

B1: CocE: wild-type cocaine esterase of Rhodococcus sp. MB 1, SEQ ID NO: 1, Accession No. AF173165 (protein)
chain: MVDGNYSVASNVMVPMRDGVRLAVDLYRPDADGPVPVLLVRNPYDKFDVFAWSTQSTNWLEFVRDGYAVVIQDTRGLFASEGEFVPHVDDEADAEDTLSWILEQAWCDGNVGMFGVSYLGVTQWQAAVSGVGGLKAIAPSMASADLYRAPWYGPGGALSVEALLGWSALIGTGLITSRSDARPEDAADFVQLAAILNDVAGAASVTPLAEQPLLGRLIPWVIDQVVDHPDNDESWQSISLFERLGGLATPALITAGWYDGFVGESLRTFVAVKDNADARLVVGPWSHSNLTGRNADRKFGIAATYPIQEATTMHKAFFDRHLRGETDALAGVPKVRLFVMGIDEWRDETDWPLPDTAYTPFYLGGSGAANTSTGGGTLSTSISGTESADTYLYDPADPVPSLGGTLLFHNGDNGPADQRPIHDRDDVLCYSTEVLTDPVEVTGTVSARLFVSSSAVDTDFTAKLVDVFPDGRAIALCDGIVRMRYRETLVNPTLIEAGEIYEVAIDMLATSNVFLPGHRIMVQVSSSNFPKYDRNSNTGGVIAREQLEEMCTAVNRIHRGPEHPSHIVLPIIKR
modifications: Rhodococcus sp. MB1
- 1/2 (t1/2) at 37° C. [1]: 12 min
- protection against cocaine-induced lethality ([2]; 0.1 mg): no protection
- lethality ([2]; 0.32 mg i.v. one minute after 1 g/kg cocaine i.p., rats): 100%
- rats saved ([2]; 1 mg CocE 1 minute before cocaine (100 mg/kg)): 100%
- rats survived ([2]; 1 mg CocE 30 minutes before cocaine (100 mg/kg)): 66%
- protective effects ([2]; 1 mg CocE 100 min prior to cocaine): eliminated
- rats survived ([2]; 1 mg CocE '1 minutes' before cocaine as printed (100 mg/kg)): 32%
- time after the LD100 dose of cocaine at which the enzyme provided protection ([2]; 1 mg CocE, 100 mg/kg cocaine): up to 6 minutes
- cocaine dose required to surmount the protective properties [2, 11]: 1000 mg/kg
- shift in the cocaine-toxicity dose effect curve [2, 11]: ten-fold shift
- protection against cocaine-induced lethality ([2]; 1 mg): 100%
- duration of anti-cocaine effect ([2]; preliminary studies in rats): more than 30 minutes
- Kcat [3]: 9.4 s⁻¹
- Km [3]: 1.6 µM
- Kcat ([4]; against (-) cocaine): 7.8 s⁻¹
- Km ([4]; against (-) cocaine): 0.64 µM
- Km ([4]; purified enzyme, cocaine): 0.64 µM
- kcal (Michaelis-Menten kinetics) ([4]; purified enzyme, cocaine): 7.2 s⁻¹
- t1/2 of CocE ([5]; at 4° C.): greater than 6 months
- t1/2 of CocE ([5]; at 37° C.): approximately 15 minutes
- Titer (log10 dilution +/− SE) ([6]; Challenged and Treated (3x), CocE given with cocaine): 3.33 +/− 0.333
- Titer (log10 dilution +/− SE) ([6]; Challenged and Treated (4x), CocE given with cocaine): 3.5 +/− 0.5
- antibody titers ([6]; CocE i.v. during cocaine challenges): detectable but relatively low titers
- antibody titer ([6]; CocE/IFA with an additional boost): 10^6
- Titer (log10 dilution +/− SE) ([6]; Positive 1 (n = 3) 2 weeks, Immunized (IFA/IP)): 5
- Titer (log10 dilution +/− SE) ([6]; Positive 2 (n = 3) 3 weeks, Immunized/Boost (IFA/IP)): 6
- antibody titer ([6]; immunized once with CocE/IFA): 10^5
- half-life [7]: about 10 minutes
- survival on second administration ([8]; 0.32 mg CocE and 320 mg/kg cocaine, 14 days following the initial administration): All of the mice survived
- survival on third administration ([8]; 0.32 mg CocE and 320 mg/kg cocaine, 21 days following the first dose): All mice also survived
- time to death (average) ([8]; 1.0 gm/kg cocaine plus 1.0 mg of CocE, mice): 28 min
- shift in the potency of cocaine in producing death ([8]; both 0.32 and 1.O 'mg/kg cocaine' as printed, mice): dramatic shift to the right
- lethal effect of WIN 35065-2 under treatment with CocE [9]: not overcome
- decrease of cocaine levels compared with vehicle-treated plasma ([10]; human plasma 37° C., 300 μM cocaine, 0.05 mg/ml CocE, within 1 min): at least 100 fold
- cocaine level after esterase ([10]; human plasma 37° C., 300 μM cocaine, 2-minute timepoint): below 1 microM
- cocaine concentration after esterase ([10]; human plasma 37° C., 300 μM cocaine, within 1 min): approximately 2 μM
- cocaine concentrations in serum metabolized ([10]; in less than one minute (FIG. 15)): 150 fold
